Test results reported in publication PMC10914628 (Nature Chemistry, 2024).

Molecular target: the molecule itself
Assay: SEC; apo state; Superdex 200 in crosslinking buffer (20 mM HEPES pH 7.2, 250 mM KCl, 5 mM EDTA), before and after cross-linking

B1: p97-ND1L-ΔCys-F360C-A413C (domain or fragment)
chain: not shown
modifications: C360 and C413 joined between subunits by bismaleimidoethane (BMOE) in the cross-linked sample
notes: human p97 (VCP), UniProt P55072, residues 1-480; ΔCys: C69V-C77V-C105A-C174A-C184W-C209V-C415A, plus F360C and A413C; also called cysteine-free p97 variant with F360C and A413C; source: E. coli BL21(DE3), purified (Ni-NTA, TEV cleavage, SEC on Superdex 200; apyrase digestion); reduced with DTT and gel-filtered before cross-linking; not shown: His6, N-terminal, cleaved
  stoichiometry N: 6
